Source: PMC11604724 (MedComm, 2024)

What was measured:
[1] = target: PNGase F‐treated NTD protein (SARS-CoV-2 WT, UniProt P0DTC2, N-linked glycans removed with PNGase F (nearly complete deglycosylation)); experiment: ELISA; conditions: both partners purified
[2] = target: Horseradish peroxidase (HRP)‐labeled NTD protein (SARS-CoV-2, WT assumed, UniProt P0DTC2, horseradish peroxidase (HRP) label); experiment: ELISA; conditions: both partners purified
[3] = target: SARS‐CoV‐2 N‐terminal domain (NTD) protein (SARS-CoV-2 WT, UniProt P0DTC2, N-linked glycans (complex glycosylation, migrates at 40-70 kDa)); experiment: ELISA; conditions: both partners purified
[4] = target: SARS‐CoV‐2 (WT) spike expressed on HEK293T cells (SARS-CoV-2, UniProt P0DTC2); experiment: flow cytometry on cells; conditions: one partner purified

Measured: binding result

B1: mAb 3711 (antibody, V domains shown)
VH: EVQLVESGGGLVKPGRSLRLSCAASGFTFSDYYMSWIRQAPGKGLEWVSYISSSGSTIYYADSVRGRFTISRDNAKNSLYLQMNTLRAEDTAVYYCARGGWELRSLAGGYYGMDVWGQGTTVTVSS
VL: DIVMTQTPFTLSASVGDRVTITCRASQGIRNDLGWYQQKPGKAPKCLIYAASSLLSGVPSRFSGSGSGTEFTLTISSLQPEDFATYYCLQHNSYPWTFGQGTKLEIK
binds: all assays above
